In this experiment the target is recombinant N-terminal His6-tagged GlgB (Synechocystis sp. PCC 6803) (UniProt P52981). Description: MST.
recombinant N-terminal His6-tagged GlgB (Synechocystis sp. PCC 6803), sequence (P52981 whole entry): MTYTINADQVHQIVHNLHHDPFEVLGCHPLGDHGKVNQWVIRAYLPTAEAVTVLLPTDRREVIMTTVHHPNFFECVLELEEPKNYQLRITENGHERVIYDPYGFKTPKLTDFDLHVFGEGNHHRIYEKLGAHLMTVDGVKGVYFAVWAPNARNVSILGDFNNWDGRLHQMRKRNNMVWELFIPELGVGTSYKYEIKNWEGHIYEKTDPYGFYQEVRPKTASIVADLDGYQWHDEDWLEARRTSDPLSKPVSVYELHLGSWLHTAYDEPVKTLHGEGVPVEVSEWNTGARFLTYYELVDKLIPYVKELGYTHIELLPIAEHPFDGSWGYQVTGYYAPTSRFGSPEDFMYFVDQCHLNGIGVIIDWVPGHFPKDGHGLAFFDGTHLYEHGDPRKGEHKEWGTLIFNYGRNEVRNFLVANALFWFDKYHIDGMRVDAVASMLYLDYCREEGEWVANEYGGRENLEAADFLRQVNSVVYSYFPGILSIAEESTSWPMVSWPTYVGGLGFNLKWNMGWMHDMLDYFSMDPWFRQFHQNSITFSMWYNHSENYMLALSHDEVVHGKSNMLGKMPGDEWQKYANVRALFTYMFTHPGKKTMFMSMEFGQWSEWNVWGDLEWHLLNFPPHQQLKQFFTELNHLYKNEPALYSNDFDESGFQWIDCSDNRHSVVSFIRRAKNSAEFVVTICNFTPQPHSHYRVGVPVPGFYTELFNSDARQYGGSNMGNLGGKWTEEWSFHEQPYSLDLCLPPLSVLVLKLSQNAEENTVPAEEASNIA

As for “recombinant C-terminal StrepII-tagged ScSbtB (SbtB from Synechocystis sp. PCC 6803) (from UniProt P73954 1-110) (natural protein)”, the Kd is 220 nM.

As usually defined, the Kd is the concentration at which binding is half-saturated.

For the origin of these results see PMC8654305.
